The record followed here is the nanobody polyreactivity screen of Harvey et al. (2022).

The data set can be described thus: yeast display, Sf9 membrane polyspecificity reagent, FACS + sequencing; frameworks hold sequencing errors. In short, it runs like this: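 Galactose induction of a Saccharomyces cerevisiae BJ5465 synthetic nanobody display library ran 36–48 hours. The cells were then stained for 1 hour at 4 °C with 10% biotinylated, detergent-solubilized Sf9 membrane reagent, pulled down on streptavidin microbeads and FACS-sorted into low and high (top ~1%) gates on expression and reagent-binding fluorescence. Labels for polyreactivity follow the gate of origin.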
As to “QVQLVESGGGLVQAGGSLRLSCAASGSIFKTNAMGWYRQAPRKERELVAGISNVGSTNYADSVKGRFTISRDNAKNTVYLQMNSLKPEDTAVYYCAAPYTSQTIPDYVRYFIEYDYWGQATQVTVSS”, the “polyreactivity (PSR sort gate)” value is “low polyreactivity”.
For “QVQLVESGGGLVQAGGSLRLSCAASGSIFKTYAMGWSRPAPGKERELVAAITSSGGSTYYADSVKGRFTISRDNAKNTVDLQMNSLKPEDTAVYDCAALSGQARRMYYWGQGTQVTVSS” the value was “high polyreactivity”; for “QVQLVESGGGLVQAGGSLRLSCAASGSIFKVYAMGWYRQAPGKERELVASISYSGGSTYYADSVKGRFTISRDNAKNTVYLQMNSLKPEDTAVYYCNADTITYQGYDYGYWGQGTQVTVSS”, “low polyreactivity”.
The result for “QVQLVESGGGLVQAGGSLRLSCAASGSIFKVYAMGWYRQAPGKERELVASITSGGRTYADSVKGRFTISRDNAKNTVYLQMNSLKPEDTAVYYCSARSRSKFYYWGQGTQLTVSS” reads “high polyreactivity”.
For “QVQLVESGGGLVQAGGSLRLSCAASGSIFKWNAMGWYRQAPGKERELVASITRSGGSTYYADSVKGRFTISRDNAKNTVYLQMNSLKPEDTAVYYCARSYGWYRWAGYDYWGQGTQVTVSS” the value was “high polyreactivity”.
On to “QVQLVESGGGLVQAGGSLRLSCAASGSIFKWYAMGWYRQAPGKERELVAAITRGGSTNYADSVKGRFTISRDNAKNTVYLQMNSLKPEDTAVYYCNAVYTYRSGFGYWGQGTQVTVSS”, for which the “polyreactivity (PSR sort gate)” value was “low polyreactivity”.
For “QVQLVESGGGLVQAGGSLRLSCAASGSIFKYNPMGWYRQAPGKEMELVATISGGGRTYYADSVKGRFTISRDNAKNTVYLQMNSLKPEDTAVYYCAARKRGTFTYDYWGQGTQVTVSS” the value was “high polyreactivity”; for “QVQLVESGGGLVQAGGSLRLSCAASGSIFKYYAMGWYRQAPGKERELDAAISYSGGRTYYADSVKGRFTISRDNAKNTVYLQMNSLKPEDTAVYYCATDYYYRSAKFLGDYWGQGTQVTVSS”, “high polyreactivity”.
For “QVQLVESGGGLVQAGGSLRLSCAASGSIFKYYAMGWYRQAPGKERELVAAISVRGSRTYYADSVKGRFTISRDNAKNTVYLQMNSLKPEDTAVYYCAADGGYIPPYGYDYWGQGTQVTVSS” the value was “high polyreactivity”; for “QVQLVESGGGLVQAGGSLRLSCAASGSIFKYYAMGWYRQAPGTERELVAAISTGGTTNYADSVKGRFTISRDNAKNTVYLQMNSLKPEDTAVYYCNRDYLVRSRYKYYYWGQGTQVTVSS”, “low polyreactivity”; for “QVQLVESGGGLVQAGGSLRLSCAASGSIFKYYTMGWYRQAPGKERELVARISTRGDSTYYADSVKGRFTISRDNAKNTVYLQMNSLKPEDTAVYYCNARPGSRRSSTWGMDYWGQGTQVTVSS”, “high polyreactivity”.
The result for “QVQLVESGGGLVQAGGSLRLSCAASGSIFLASAMGWYRQAPGKERELVAAITAGTGSTYYADSVKGRFTISRDNAKNTVYLQMNSLKPEDTAVYYCAKAVSLFRGPFSSFDYWGQGTQVTVSS” reads “low polyreactivity”; that for “QVQLVESGGGLVQAGGSLRLSCAASGSIFLAYAMGWYRQAPGKEREFVAAISSRGGSTYYADSVKGRFTISRDNAKNTVYLQMNSLKPEDTAVYYCARYKYTRQTRVEYGYWGQGTQVTVSS”, “high polyreactivity”.
For the sequence “QVQLVESGGGLVQAGGSLRLSCAASGSIFLAYAMGWYRQAPGKERELVADISYSGGRTYYADSVMGRFTISRDNAKNTVYLQMNSLIPEDTAVYYCAADPWHDTDQHGNDYWGQGSQVTVSS”, the “polyreactivity (PSR sort gate)” value is “low polyreactivity”.
The result for “QVQLVESGGGLVQAGGSLRLSCAASGSIFLAYAMGWYRQAPGKERELVASTYYADSVKGRFTISRDNAKNTVYLQMNSLKPEDTAVYYCAADRIYSIYVSPYYSFGYWGQGTQVTVSS” reads “low polyreactivity”; that for “QVQLVESGGGLVQAGGSLRLSCAASGSIFLAYDMGWYRQAPGKERELVAAISYTGGSTNYADSVKGRFTISRDNAKNTVYLQMNSLKPEDTAVYYCNTAGDLWIDYGYWGQGTQVTVSS”, “low polyreactivity”; that for “QVQLVESGGGLVQAGGSLRLSCAASGSIFLAYPMGWYRQAPGKEREFVAAISFSDGSTYYADSVKGRFTISRDNAKNTVYLQMNSLKPEDTAVYYCNKRASPDDYDYWGQGTQVTVSS”, “low polyreactivity”.
As for “QVQLVESGGGLVQAGGSLRLSCAASGSIFLDNAMGWYRPAPGKERELVAAISRRGGTTYYADSVKGRFTISRDNAKNTVYLQLNSLIPEDTAVYYCAARYPGGKYYSYTYNYWGQGTQVTVSS”, the “polyreactivity (PSR sort gate)” value is “high polyreactivity”.
Regarding “QVQLVESGGGLVQAGGSLRLSCAASGSIFLDYAMGWYRQAPGKERELVDGITISGGSTYYADSVKGRFTISRDNAKNTVYLQMNSLKPEYTAVYYCAKVAPRSSSSQEYYYWGQGTQVTVSS”, the “polyreactivity (PSR sort gate)” value is reported as “low polyreactivity”.
The result for “QVQLVESGGGLVQAGGSLRLSCAASGSIFLGNTMGWYRQAPGKERELVAAITIGGSTHYADSVKGRFTISRDNAKNTVYLQMNSLKPDDTAVYYCAKEGWPFGIDFDYWGQGTQVTVSS” reads “low polyreactivity”.
The result for “QVQLVESGGGLVQAGGSLRLSCAASGSIFLGYAMGWYRQAPGKERELVADIDWRDGSTYYADSVKGRFTISRDNAKTTVYLQMNSLKPEDTAVYYCAVYDNLQWDFGIYYEYDYWGQGTQVTVSS” reads “high polyreactivity”.
As for “QVQLVESGGGLVQAGGSLRLSCAASGSIFLHNAMGWYRQAPGKERELVAVITSRGGSTYYADSVKGRFTISRDNAKNTVYLQMNSLKPEDTAVYYCAADSRQSDYYYQPTKIDYWGQGTQVTVSS”, the “polyreactivity (PSR sort gate)” value was “low polyreactivity”.
For “QVQLVESGGGLVQAGGSLRLSCAASGSIFLHNAMGWYRQAPGKERVLVAVITSRGGSTYYADSVKGRFTISRDNAKNPVYLQMNSLKPEDTAVYYCAAPAYHKRTSRGDYWGQGTQVTVSS” the value was “low polyreactivity”; for “QVQLVESGGGLVQAGGSLRLSCAASGSIFLINAMGWYRQAPGKERELVAAISRSGGRTYYADSVKGRFTISRDNAKNTVYLEMNSLKPEDTAVYYCAVPSIYYAVRAYDYWGQGTQVTVSS”, “high polyreactivity”; for “QVQLVESGGGLVQAGGSLRLSCAASGSIFLINAMGWYRQAPGKETELVAAISRSGGRTYYADSVKGRFTISRDNAKNTVYLQMNSLKPEDTAVYYCAVPSIYYAGRAYDYWGQGTQVTVSS”, “high polyreactivity”.
With “QVQLVESGGGLVQAGGSLRLSCAASGSIFLINAMGWYRQAPGTERELVAAISRRGGSTYYADSVKGRFTISRDNAKNTVYLQMNSLKPEDTAVYYCAATGHGRVYFGGGHWGQGTQVTVSS”, the “polyreactivity (PSR sort gate)” value was “high polyreactivity”.
The result for “QVQLVESGGGLVQAGGSLRLSCAASGSIFLIYAMGSYRQAPGKERELVATINRGDNTYYADSVKGRFTISRDNAKNTVYLQMNSLKPEDTAVYYCAADVPWGWWDSDFSDNYYWGQGTQVTVSS” reads “low polyreactivity”; that for “QVQLVESGGGLVQAGGSLRLSCAASGSIFLIYAMGWYRQAPGKERELVAAISSGGSTYYADSVKGRFTISRDNAKNTVYLQMNSLKPEDTAVYYCATYSTSVAFHLYYWGQGTQVTVSS”, “low polyreactivity”.
The result for “QVQLVESGGGLVQAGGSLRLSCAASGSIFLIYAMGWYRQGPGKERELVAGINWSGSRTYYADSVKGRFTISRDNAKNTVYLQMNSLKPEDTAVYDCAARVRRPLYSAYDSWGQGTQVTVSS” reads “low polyreactivity”.
For “QVQLVESGGGLVQAGGSLRLSCAASGSIFLKYAMCLYRQAPGKERELVAAMSFSGGGTYYADSVKGRFTISRDNAKNTVYLQMNSLKPEDTAVYYCAADKIVYVRSNWYWGFDYWGQGTQVTVSS” the value was “low polyreactivity”.
